Source: US20140286963A1 (Genentech, published 2014)
Residue numbers refer to the chain shown, from its start.

Columns and labels:
[1] = biological target: T1, human BACE1 extracellular domain, amino acids 1-457 of SEQ ID NO:49 (human, UniProt P56817 22-457, biotinylated in the phage sorting, phage ELISAs and the competition ELISA (sites not given)); assay: one-point competition phage ELISA, plate-immobilized BACE1, 20 nM BACE1 in solution
T1 construct: also called human BACE1 ECD; hBACE1
Description: (§1) Screening of the libraries for affinity maturation of initially obtained antibodies was carried out similarly as described above. […] For rounds 2 and 3, 20 nM and 5 nM biotinylated BACE1 was incubated with amplified phage, respectively. Clones (96) from each of the two libraries were screened in a one-point competition ELISA, where 20 nM of BACE1 was used in solution to compete the phage particle from binding to plate-immobilized BACE1 as described below.
(§2) A plate immobilized with BACE1 was prepared by capturing 2 μg/ml biotinylated BACE1 for 15 min using a 384-well Maxisorp Immunoplate that was previously coated with 2 μg/ml of Neutravidin at 4° C. for overnight and blocked with Blocking Buffer. The culture supernatants from individual clones grown in a 96-well format were diluted 20-fold in PBT buffer and was incubated with or without 20 nM BACE1 at room temperature for 1 h. The mixture was transferred to the plate with immobilized BACE1 and incubated for 15 min. The plate was washed six times by PT buffer and the bound phage was detected by anti-M13-HRP as described above. The ratio between the ELISA signal from the well in the absence and the presence of BACE1 in solution indicates the affinity of the clone, where higher ratios indicate the higher affinities.

[2] = biological target: T1, human BACE1 extracellular domain, amino …; assay: phage competition ELISA IC50, against parent Fab14
[3] = biological target: T1, human BACE1 extracellular domain, amino …; assay: one-point phage competition ELISA: ratio of the ELISA signal of Fab-displaying phage on plate-immobilized BACE1 without / with 20 nM BACE1 in solution
Description: as §1, §2

[4] = biological target: T1, human BACE1 extracellular domain, amino …; assay: phage competition ELISA: Fab-displaying phage on plate-immobilized BACE1, serial dilutions of BACE1 in solution
Description: (§3) Single colonies (in XL1 blue cells) of the selected clones were picked up and grown in 1 ml 2YT broth supplemented with 50 μg/ml carbenicillin, 10 μg/ml tetracycline and M13KO7 at 37° C. for 2 h. Kanamycin (25 μg/ml) was added to the culture, which continued to grow for 6 h. The culture was transferred to 30 ml 2YT broth supplemented with 50 μg/ml carbenicillin and 25 μg/mlkanamycin and grown at 37° C. overnight. Phage were harvested and purified as previously described (Sidhu, S. S. et al. Methods Enzymol. 328: 333-363 (2000)). The purified Fab-displaying phage were serially diluted in PBT buffer and tested for binding to BACE1 immobilized on a plate. A fixed phage concentration that gives 80% of saturation signals was selected for the subsequent competition ELISA. The competition was conducted by incubating the fixed, sub-saturating Fab-displaying phage with serial dilutions of BACE1 for 1 h and then transferred to the BACE1-immobulized plate for 15 min to capture unbound phage. The plate was then washed for 8 times and bound phage were detected by anti-M13-HRP.
(§4) To estimate the affinity of these 6 clones, phage competition ELISAs were performed, as described above, and IC₅₀ values were determined (FIG. 7). The IC₅₀ values were determined by fitting the data to a four-parameter logistic equation developed by Marquardt (Marquardt, D. W. SIAM J. Appl. Math. 11: 431-441 (1963)) using Kaleidagraph (Synergy Software) and are shown below in Table 2.

[5] = biological target: T1, human BACE1 extracellular domain, amino …; assay: cell-based or functional assay
[6] = biological target: T1, human BACE1 extracellular domain, amino …; assay: phage competition ELISA IC50, against parent Fab5
Description: as §3, with “The competition was conducted by incubating the fixed, sub-saturating Fab-displaying phage with serial dilutions of BACE1 for 1 h and then transferred to the BACE1-immobulized plate for 15 min to capture unbound phage.” left out
as §4

[7] = biological target: T1, human BACE1 extracellular domain, amino …; assay: SPR (BIAcore-3000), second unlabelled row under Human, IgG captured by anti-human Fc antibody, pH 7.0
Description: (§5) Association rates (kₒₙ) and dissociation rates (koff) were calculated using a simple one-to-one Langmuir binding model (BIAcore™ Evaluation Software version 3.2). The equilibrium dissociation constant (KD) was calculated as the ratio koff/kₒₙ.

[8] = biological target: T2, Guinea pig BACE1 (Guinea pig); assay: SPR (BIAcore-3000), IgG captured by anti-human Fc antibody, pH 7.0
T2 construct: The method text names only the human and murine ECD; The guinea pig construct is not described

[9] = biological target: T1, human BACE1 extracellular domain, amino …; assay: SPR (BIAcore-3000), IgG captured by anti-human Fc antibody, BACE1 ECD injected, 25 C, pH 7.0
Description: as §5

[10] = biological target: T3, human BACE2 extracellular domain (human, UniProt Q9Y5Z0 21-473); assay: SPR
T3 construct: extracellular domain; The extracellular domain is stated for the MCE enzyme assay; also called human recombinant BACE2 extracellular domain
T3 sequence (looked up): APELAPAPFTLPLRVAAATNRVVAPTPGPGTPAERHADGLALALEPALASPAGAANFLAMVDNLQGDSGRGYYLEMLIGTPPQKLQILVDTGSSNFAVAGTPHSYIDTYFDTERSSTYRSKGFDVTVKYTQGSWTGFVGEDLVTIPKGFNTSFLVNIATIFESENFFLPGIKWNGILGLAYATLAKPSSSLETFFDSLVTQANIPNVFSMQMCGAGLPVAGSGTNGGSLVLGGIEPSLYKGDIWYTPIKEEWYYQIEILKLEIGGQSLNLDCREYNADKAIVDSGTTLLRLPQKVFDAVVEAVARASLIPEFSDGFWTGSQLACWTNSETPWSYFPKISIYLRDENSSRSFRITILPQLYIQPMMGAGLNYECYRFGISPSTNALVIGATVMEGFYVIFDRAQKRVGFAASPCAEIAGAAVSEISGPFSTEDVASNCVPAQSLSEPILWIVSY

[11] = biological target: T1, human BACE1 extracellular domain, amino …; assay: cell-based or functional assay; remark: listed apart in the source
[12] = biological target: BACE1 of primary mouse neurons (mouse, UniProt P56818 46-501); assay: cell-based or functional assay
BACE1 of primary mouse neurons, sequence (P56818 46-501): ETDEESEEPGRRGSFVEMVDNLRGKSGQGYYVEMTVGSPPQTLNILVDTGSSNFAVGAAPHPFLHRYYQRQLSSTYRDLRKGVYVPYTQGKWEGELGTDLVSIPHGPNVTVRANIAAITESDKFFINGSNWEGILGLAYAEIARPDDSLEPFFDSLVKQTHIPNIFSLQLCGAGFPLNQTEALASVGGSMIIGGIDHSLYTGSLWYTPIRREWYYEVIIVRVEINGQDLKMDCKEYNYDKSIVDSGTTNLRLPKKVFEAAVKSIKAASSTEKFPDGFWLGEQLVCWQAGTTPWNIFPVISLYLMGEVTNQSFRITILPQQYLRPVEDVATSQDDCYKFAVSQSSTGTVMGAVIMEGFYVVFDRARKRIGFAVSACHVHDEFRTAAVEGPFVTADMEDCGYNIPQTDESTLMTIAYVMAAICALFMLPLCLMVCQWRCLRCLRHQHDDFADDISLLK

[13] = biological target: BACE1 of 293-HEK cells stably expressing wild-type human APP (UniProt P56817 46-501); assay: cell-based or functional assay
BACE1 of 293-HEK cells stably expressing wild-type human APP, sequence (P56817 46-501): as the sequence (P56818 46-501) above, with S6P, I162V, I165L, T180S, A182V, V340I, A393L, H443Q counted along it

[14] = biological target: T1, human BACE1 extracellular domain, amino …; assay: phage competition ELISA: Fab-displaying phage incubated with serial dilutions of BACE1 in solution, unbound phage captured on plate-immobilized BACE1, anti-M13-HRP, OD450
Description: as §3, with “The competition was conducted by incubating the fixed, sub-saturating Fab-displaying phage with serial dilutions of BACE1 for 1 h and then transferred to the BACE1-immobulized plate for 15 min to capture unbound phage.” left out
as §4

[15] = biological target: T1, human BACE1 extracellular domain, amino …; assay: phage competition ELISA IC50; parent, reference for LC9, LC10 and LC6

T1 sequence (P56817 22-457): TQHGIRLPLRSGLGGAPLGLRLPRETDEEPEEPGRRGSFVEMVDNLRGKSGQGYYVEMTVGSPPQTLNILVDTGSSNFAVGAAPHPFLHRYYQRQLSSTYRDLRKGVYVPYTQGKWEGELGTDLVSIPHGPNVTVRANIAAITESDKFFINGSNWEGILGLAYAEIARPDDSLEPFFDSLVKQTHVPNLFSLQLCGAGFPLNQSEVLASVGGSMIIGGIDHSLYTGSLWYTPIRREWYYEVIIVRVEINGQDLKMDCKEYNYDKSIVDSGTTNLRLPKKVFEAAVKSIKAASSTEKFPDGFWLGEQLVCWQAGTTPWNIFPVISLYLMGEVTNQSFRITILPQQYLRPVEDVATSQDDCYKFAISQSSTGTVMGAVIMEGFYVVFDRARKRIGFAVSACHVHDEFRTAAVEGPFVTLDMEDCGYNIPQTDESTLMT

B1: Fab LC 40 (Fab, V domains shown)
VH: EVQLVESGGGLVQPGGSLRLSCAASGFNVSSSSMHWVRQAPGKGLEWVASIYPYSSSTSYADSVKGRFTISADTSKNTAYLQMNSLRAEDTAVYYCARYSYYSYGIDYWGQGTLVTVSS
VL: DIQMTQSPSSLSASVGDRVTITCRASQYSYSYSVAWYQQKPGKAPKLLISYASYLYSGVPSRFSGSGSGTDFTLTISSLQPEDFATYYCQQYSYSYSPITFGQGTKVEIK
- ratio of ELISA signal in the absence to the presence of BACE1 in solution [1]: > 3 ratio
- Fold affinity improvement [2]: 3 fold
- Competition ELISA Ratio [3]: 3
- IC50 [4]: 4.7 nM

B2: Fab LC 4 (Fab, V domains shown)
VH: EVQLVESGGGLVQPGGSLRLSCAASGFNLSYSYIHWVRQAPGKGLEWVASIYSSYGSTYYADSVKGRFTISADTSKNTAYLQMNSLRAEDTAVYYCARSYHHSDKYYYAWSYALDYWGQGTLVTVSS
VL: DIQMTQSPSSLSASVGDRVTITCRASQSVSSAVAWYQQKPGKAPKLLIYSASSLYSGVPSRFSGSGSGTDFTLTISSLQPEDFATYYCQQYSYSLLTFGQGTKVEIK
- ratio of ELISA signal in the absence to the presence of BACE1 in solution [1]: > 4 ratio
- IC50 (nM), HTRF enzyme activity assay [5]: 480 nM
- Fold affinity improvement [6]: 45 fold
- Competition ELISA Ratio [3]: 6.3
- IC50 [4]: 0.46 nM

B3: YW412.8.31 anti-BACE1 human IgG (antibody, V domains shown)
VH: EVQLVESGGGLVQPGGSLRLSCAASGFTFLGYGIHWVRQAPGKGLEWVGWISPAGGSTDYADSVKGRFTISADTSKNTAYLQMNSLRAEDTAVYYCARGPFSPWVMDYWGQGTLVTVSS
VL: B2 VL with S28D, S31T, S53F, Y91F, S92P, Y93T, S94Y, L96P
notes: also called YW412.8.31 antibody
- Kd [7]: 1.32 nM
- koff [7]: 0.000139 s⁻¹
- kon [7]: 105000 M⁻¹ s⁻¹
- Kd [8]: 2.6 nM
- koff [8]: 0.00027 s⁻¹
- kon [8]: 100000 M⁻¹ s⁻¹
- Kd [9]: 2.9 nM
- koff [9]: 0.00031 s⁻¹
- kon [9]: 110000 M⁻¹ s⁻¹
- binding result [10]: no binding
- IC50, HTRF long peptide assay [11]: 1.7 nM
- IC50, microfluidic capillary electrophoresis assay [11]: 0.08 nM
- IC50, short FRET peptide assay [11]: 17 nM
- IC50, Aβ40 production in DRG neurons [12]: 8.4 nM
- IC50, Aβ40 production in cortical and hippocampal neurons [12]: 2.3 to 2.6 nM
- IC50, Aβ1-40 production in APP-expressing 293 cells [13]: 17 nM

B4: Fab LC 6 (Fab, V domains shown)
VH: EVQLVESGGGLVQPGGSLRLSCAASGFNFYYSSIHWVRQAPGKGLEWVASISPYSGYTSYADSVKGRFTISADTSKNTAYLQMNSLRAEDTAVYYCARQPTHYYYYAKGYKAMDYWGQGTLVTVSS
VL: B2 VL with Y49S, S50W, S53W, L95P, L96F
- IC50 (nM), HTRF enzyme activity assay [5]: 160 nM
- IC50 (read off the curve) [14]: ~0.3 nM
- improvement in inhibition activity against parent Fab 12, HTRF enzyme activity assay [11]: ~20 fold

B5: Fab 12 (Fab, V domains shown)
VH: B4 VH
VL: B2 VL with L95P, L96F
- Fold affinity improvement [15]: 1 fold
- IC50 [4]: 45.3 nM

B6: Fab LC10 (Fab, V domains shown)
VH: B4 VH
VL: B2 VL with Y49W, S50W, L95P, L96F
- improvement in inhibition activity against parent Fab 12, HTRF enzyme activity assay [11]: ~20 fold

B7: Fab LC 9 (Fab, V domains shown)
VH: B4 VH
VL: B2 VL with Y49W, S50Y, S53W, L95P, L96F
- IC50 (nM), HTRF enzyme activity assay [5]: 140 nM
- improvement in inhibition activity against parent Fab 12, HTRF enzyme activity assay [11]: ~20 fold
